Measurements reported in PMC4263767, “IL-28B is a Key Regulator of B- and T-Cell Vaccine Responses against Influenza” (PLoS Pathogens, 2014).

Test system: PBMCs from healthy volunteers
Experiment: Cytokine release by H1N1-stimulated healthy volunteer PBMCs, 5 days (luminex)
Type: cell-based, human
[1] = with IL-28B, 5-day H1N1, HV PBMCs n=9, median (IQR)

B1: IL-28B: recombinant IL-28B, a member of the interferon (IFN)-λ family (protein)
chain: VPVARLRGALPDARGCHIAQFKSLSPQELQAFKRAKDALEESLLLKDCKCRSRLFPRTWDLRQLQVRERPVALEAELALTLKVLEATADTDPALGDVLDQPLHTLHHILSQLRACIQPQPTAGPRTRGRLHHWLHRLQEAPKKESPGCLEASVTFNLFRLLTRDLNCVASGDLCV
modifications: left off: His tag, end not stated, kept
notes: recombinant IL-28B, a member of the interferon (IFN)-λ family
- production of B-cell trophic and Th2 cytokines (in words) (5-day H1N1, n = 9): significant decrease in the production of cytokines trophic for B-cells such as GRO, Fractalkine, and Th2-cytokines (IL-4, IL-5, IL-9, and IL-13)
- IFN-α2, ratio IL28/no IL28 (5-day H1N1, p=0.004): 1.7
- sIL2Ra, ratio IL28/no IL28 (5-day H1N1, p=0.004): 0.6
- Fractalkine, ratio IL28/no IL28 (5-day H1N1, p=0.008): 0.3
- GRO, ratio IL28/no IL28 (5-day H1N1, p=0.008): 0.0
- IL-9, ratio IL28/no IL28 (5-day H1N1, p=0.008): 0.2
- sCD40L, ratio IL28/no IL28 (5-day H1N1, p=0.01): 0.4
- IL-5, ratio IL28/no IL28 (5-day H1N1, p=0.02): 0.0
- IL-13, ratio IL28/no IL28 (5-day H1N1, p=0.02): 0.6
- IL-4, ratio IL28/no IL28 (5-day H1N1, p=0.03): 0.5
- IL-6, ratio IL28/no IL28 (5-day H1N1, p=0.03): 1.3
- TGF-α, ratio IL28/no IL28 (5-day H1N1, p=0.03): 1.3
- IL-1β, ratio IL28/no IL28 (5-day H1N1, p=0.04): 1.9
- IP-10, ratio IL28/no IL28 (5-day H1N1, p=0.08): 0.3
- FLT3, ratio IL28/no IL28 (5-day H1N1, p=0.11): 0.5
- IL-3, ratio IL28/no IL28 (5-day H1N1, p=0.16): 0.3
- TNF-β, ratio IL28/no IL28 (5-day H1N1, p=0.16): 0.6
- IL-15, ratio IL28/no IL28 (5-day H1N1, p=0.17): 0.9
- MCP-3, ratio IL28/no IL28 (5-day H1N1, p=0.25): 1.1
- PDGF AA, ratio IL28/no IL28 (5-day H1N1, p=0.25): 1.0
- FGF2, ratio IL28/no IL28 (5-day H1N1, p=0.31): 0.8
- GM-CSF, ratio IL28/no IL28 (5-day H1N1, p=0.38): 0.7
- IFN-γ, ratio IL28/no IL28 (5-day H1N1, p=0.43): 0.9
- IL-12p40, ratio IL28/no IL28 (5-day H1N1, p=0.44): 0.7
- MIP-1β, ratio IL28/no IL28 (5-day H1N1, p=0.46): 1.2
- Eotaxin, ratio IL28/no IL28 (5-day H1N1, p=0.47): 0.5
- MCP-1, ratio IL28/no IL28 (5-day H1N1, p=0.55): 0.4
- TNF-α, ratio IL28/no IL28 (5-day H1N1, p=0.55): 1.0
- IL-12p70, ratio IL28/no IL28 (5-day H1N1, p=0.64): 0.7
- IL-17, ratio IL28/no IL28 (5-day H1N1, p=0.69): 0.2
- MIP-1α, ratio IL28/no IL28 (5-day H1N1, p=0.74): 1.1
- RANTES, ratio IL28/no IL28 (5-day H1N1, p=0.74): 1.2
- G-CSF, ratio IL28/no IL28 (5-day H1N1, p=0.75): 1.0
- IL-7, ratio IL28/no IL28 (5-day H1N1, p=0.75): 1.0
- IL-1α, ratio IL28/no IL28 (5-day H1N1, p=0.82): 1.1
- IL-10, ratio IL28/no IL28 (5-day H1N1, p=0.82): 1.0
- VEGF, ratio IL28/no IL28 (5-day H1N1, p=0.82): 1.2
- IL-1ra, ratio IL28/no IL28 (5-day H1N1, p=0.84): 1.1
- IL-2, ratio IL28/no IL28 (5-day H1N1, p=0.84): 2.0
- IL-8, ratio IL28/no IL28 (5-day H1N1, p=0.95): 0.9
- PDGF AB/BB, ratio IL28/no IL28 (5-day H1N1, p=0.95): 1.3
- EGF, ratio IL28/no IL28 (5-day H1N1, p=1.00): 1.0
- MDC, ratio IL28/no IL28 (5-day H1N1, p=1.00): 1.0
- Th2-cytokines (in words, abstract) (in vitro): suppressed Th2-cytokines (e.g. IL-4, IL-5, and IL-13)
- EGF [1]: 3.7 (3.7-3.7) pg/mL
- Eotaxin [1]: 3.2 (3.2-6.9) pg/mL
- FGF2 [1]: 13.1 (3.8-19.2) pg/mL
- FLT3 [1]: 4.0 (3.2-9.4) pg/mL
- Fractalkine [1]: 4.2 (0.6-10.7) pg/mL
- G-CSF [1]: 3.2 (3.2-4.2) pg/mL
- GM-CSF [1]: 358.9 (3.2-480.7) pg/mL
- GRO [1]: 3.6 (3.6-3.6) pg/mL
- IFN-α2 [1]: 2262.0 (808.2-3663.0) pg/mL
- IFN-γ [1]: 6028.0 (3513.0-9802.0) pg/mL
- IL-1ra [1]: 376.6 (3.2-838.8) pg/mL
- IL-1α [1]: 15.1 (7.8-18.6) pg/mL
- IL-1β [1]: 16.8 (6.8-29.2) pg/mL
- IL-2 [1]: 16.5 (0.6-60.4) pg/mL
- IL-3 [1]: 0.8 (0.6-3.5) pg/mL
- IL-4 [1]: 16.2 (6.1-33.1) pg/mL
- IL-5 [1]: 0.6 (0.6-8.3) pg/mL
- IL-6 [1]: 215.5 (69.4-864.5) pg/mL
- IL-7 [1]: 3.2 (3.2-3.2) pg/mL
- IL-8 [1]: 1308.0 (789.8-1567.0) pg/mL
- IL-9 [1]: 1.3 (0.6-6.7) pg/mL
- IL-10 [1]: 2597.0 (2063.0-4353.0) pg/mL
- IL-12p40 [1]: 3.2 (3.2-6.1) pg/mL
- IL-12p70 [1]: 1.6 (1.0-2.3) pg/mL
- IL-13 [1]: 96.8 (0.6-126.7) pg/mL
- IL-15 [1]: 2.7 (1.2-3.0) pg/mL
- IL-17 [1]: 0.6 (0.6-30.7) pg/mL
- IP-10 [1]: 219.8 (3.2-2804.0) pg/mL
- MCP-1 [1]: 53.8 (7.9-145.3) pg/mL
- MCP-3 [1]: 9988.0 (8889.0-12741.0) pg/mL
- MDC [1]: 16.0 (16.0-27.2) pg/mL
- MIP-1α [1]: 5759.0 (2283.0-6915.0) pg/mL
- MIP-1β [1]: 3575.0 (1795.0-5820.0) pg/mL
- PDGF AA [1]: 0.6 (0.6 – 0.6) pg/mL
- PDGF AB/BB [1]: 8.9 (1.3-18.2) pg/mL
- RANTES [1]: 3640.0 (1941.0-6677.0) pg/mL
- TGF-α [1]: 11.8 (9.7-17.0) pg/mL
- TNF-α [1]: 297.0 (3.1-449.6) pg/mL
- TNF-β [1]: 12.0 (1.0-27.4) pg/mL
- VEGF [1]: 34.6 (15.6-46.3) pg/mL
- sCD40L [1]: 253.0 (140.1-456.3) pg/mL
- sIL2Ra [1]: 192.2 (140.8-236.1) pg/mL
